Laboratory results from PMC10559304 (Molecular Biology of the Cell, 2023).
Where two headings read alike, the source gives them in different places.

Experiments:
[1] = target: Taxol-stabilized microtubules of unlabeled, Alexa 647-labeled and biotinylated tubulin (50:2:1.5) (not stated (Pork or Bovine brains)); assay: single-molecule TIRF microscopy motility assay
[2] = target: D. melanogaster KLP61F extended bipolar assembly domain (BASS-XL) minifilament (D. melanogaster) (UniProt P46863); assay: crystal structure
[3] = target: GMPCPP-polymerized, Taxol-stabilized microtubules of the crosslinking and sliding assay (surface-immobilized HiLyte 647/biotin MTs and free rhodamine MTs); assay: MT crosslinking and sliding assay by three-colour TIRF microscopy
[4] = target: microtubules of biotin- and Alexa-Fluor-633-labeled porcine tubulin, polymerized with GMPCPP or Paclitaxel (porcine); assay: single-molecule TIRF microscopy motility assay
[5] = target: microtubules of biotin- and Alexa-Fluor-633-labeled porcine tubulin, polymerized with GMPCPP or Paclitaxel (porcine); assay: single-molecule TIRF microscopy motility assay; remark: listed apart in the source
[6] = target: microtubules of biotin- and Alexa-Fluor-633-labeled porcine tubulin, polymerized with GMPCPP or Paclitaxel (porcine); assay: single-molecule TIRF microscopy motility assay; remark: listed apart in the source
[7] = target: microtubules of biotin- and Alexa-Fluor-633-labeled porcine tubulin, polymerized with GMPCPP or Paclitaxel (porcine); assay: single-molecule TIRF microscopy motility assay; remark: listed apart in the source
[8] = target: microtubules of biotin- and Alexa-Fluor-633-labeled porcine tubulin, polymerized with GMPCPP or Paclitaxel (porcine); assay: single-molecule TIRF microscopy motility assay; remark: listed apart in the source
[9] = target: the molecule itself; assay: single-molecule TIRF microscopy, Neon Green spot intensities
[10] = target: the molecule itself; assay: mass photometry

Row | Molecule | percent of surface-immobilized MTs crosslinked to free MTs [3] | MT plus-end dwell time [5] | MT plus-end dwell time [8] | stoichiometry N [10] | also measured
1 | human Eg5 kinesin-5 minitetramer without tail, labeled with Tetra-methyl Rhodamine (from UniProt P52732;P46863) | – | – | – | – | lifetime at MT plus-ends, long population (Weibull a2) [1]: 140 s; lifetime at MT plus-ends, short population (Weibull a1) [1]: 14.6 s
2 | D. melanogaster KLP61F extended bipolar assembly domain (BASS-XL) minifilament (from UniProt P46863 597-833) (domain or fragment) | – | – | – | – | stoichiometry N [2]: 4
3 | D. melanogaster KLP61F kinesin-5 minitetramer with tail, fused to Neon Green (other) MDISGGNTSRQPQKKSNQNIQVYVRVRPLNSRERCIRSAEVVDVVGPREVVTRHTLDSKLTKKFTFDRSFGPESKQCDVYSVVVSPLIEEVLNGYNCTVFAYGQTGTGKTHTMVGNETAELKSSWEDDSDIGIIPRALSHLFDELRMMEVEYTMRISYLELYNEELCDLLSTDDTTKIRIFDDSTKKGSVIIQGLEEIPVHSKDDVYKLLEKGKERRKTATTLMNAQSSRSHTVFSIVVHIRENGIEGEDMLKIGKLNLVDLAGSENVSKAGNEKGIRVRETVNINQSLLTLGRVITALVDRAPHVPYRESKLTRLLQESLGGRTKTSIIATISPGHKDIEETLSTLEYAHRAKNIQNKPEVNQKLTKKAQSLQDQTNLHNKLIGEVMKISDQHSQAFVAKLMEQMQQQQLLMSKEIQTNLQVIEENNQRHKAMLDSMQEKFATIIDSSLQSVEEHAKQMHKKLEQLGAMSLPDAEELQNLQEELANERALAQQEDALLESMMMQMEQIKNLRSKNSISMSVHLNKMEESRLTRNHRIDDIKSGIQDYQKLGIEASQSAQAELTSQMEAGMLCLDQGVANCSMLQVHMKNLNQKYEKETNENVGSVQICEQELVRFQQSELKTYAPTGTTPSKRDFVYPRTLVATSPHQEIVRRYRQELDWSDLDTTATIDECSEGEHDVSMHSVQELSETETIMNSTPIEPVDGVTVKRGCGTTRNSNSNALKPPVATGGKRSSSLSRSLTPSKTSPRGSPAFVRHNKENVA | 24% | 117 s | 267 s | 4 | MT plus-end dwell time [4]: 125 s; MT plus-end dwell time [6]: 25 s; MT plus-end dwell time [7]: 147 s; stoichiometry N [9]: 5 to 10 motors per cluster

Continued, in another order:

Row | percent of surface-immobilized MTs crosslinked to free MTs [3] | MT plus-end dwell time [5] | MT plus-end dwell time [8] | Molecule | stoichiometry N [10] | also measured
4 | 54% | – | – | full-length human kinesin-5 (Eg5) without the tail, GFP fusion (domain or fragment) | – | –
5 | 2% | 78 s | 25 s | D. melanogaster KLP61F kinesin-5 minitetramer without tail, fused to Neon Green (other) MDISGGNTSRQPQKKSNQNIQVYVRVRPLNSRERCIRSAEVVDVVGPREVVTRHTLDSKLTKKFTFDRSFGPESKQCDVYSVVVSPLIEEVLNGYNCTVFAYGQTGTGKTHTMVGNETAELKSSWEDDSDIGIIPRALSHLFDELRMMEVEYTMRISYLELYNEELCDLLSTDDTTKIRIFDDSTKKGSVIIQGLEEIPVHSKDDVYKLLEKGKERRKTATTLMNAQSSRSHTVFSIVVHIRENGIEGEDMLKIGKLNLVDLAGSENVSKAGNEKGIRVRETVNINQSLLTLGRVITALVDRAPHVPYRESKLTRLLQESLGGRTKTSIIATISPGHKDIEETLSTLEYAHRAKNIQNKPEVNQKLTKKAQSLQDQTNLHNKLIGEVMKISDQHSQAFVAKLMEQMQQQQLLMSKEIQTNLQVIEENNQRHKAMLDSMQEKFATIIDSSLQSVEEHAKQMHKKLEQLGAMSLPDAEELQNLQEELANERALAQQEDALLESMMMQMEQIKNLRSKNSISMSVHLNKMEESRLTRNHRIDDIKSGIQDYQKLGIEASQSAQAELTSQMEAGMLCLDQGVANCSMLQVHMKNLNQKYEKETNENVGSV | 4 | –
